Test [1] concerns the target T1, amphyphisin SH3 (AMPH_HUMAN), P49418.
T1 chain: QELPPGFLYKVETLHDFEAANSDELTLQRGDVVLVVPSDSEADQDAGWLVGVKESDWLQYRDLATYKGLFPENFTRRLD
Nature of the test: SPOT array.

The target of test [2] is endophilin SH3 (SH3G2_HUMAN), Q99962. Description: SPOT array.

Turning to RPPGPRRPERGPRG [P08913 304-317], the normalised SPOT signal, Boehringer light units (BLU); mean over the file's lines of this peptide in test [1] is 13300; in test [2], 4970.

As for AVGPPKRPQPAALE [Q9ULK5 32-45], the normalised SPOT signal, Boehringer light units (BLU); mean over the file's lines of this peptide in test [1] is 31.9; in test [2], 393.

For RQGPPQKPPGPAGP [P17600 586-600], the normalised SPOT signal, Boehringer light units (BLU); mean over the file's lines of this peptide was determined as 46.6 in test [1] and 325 in test [2].

With RQSQLQRPLRGFTW [Q9HCU0 92-105], the normalised SPOT signal, Boehringer light units (BLU); mean over the file's lines of this peptide in test [1] came to 1210; in test [2] it was 235.

As to RPPNLKRPEDYEAV [O75992 403-416], the normalised SPOT signal, Boehringer light units (BLU); mean over the file's lines of this peptide in test [1] came to 12; in test [2] it was 67.7.

Regarding RPAPPQRPPPPSGA [O43426 1118-1132], the values for the normalised SPOT signal, Boehringer light units (BLU); mean over the file's lines of this peptide in test [1] and in test [2] were 1990 and 12200, respectively.

For RPPPPAKPPPDEEE [Q92625 451-465], the normalised SPOT signal, Boehringer light units (BLU); mean over the file's lines of this peptide was determined as 32.4 in test [1] and 89 in test [2].

For RPSFLRRPVNQVVL [Q96MS0 257-270], the figures for the normalised SPOT signal, Boehringer light units (BLU); mean over the file's lines of this peptide in test [1] and in test [2] were 43.9 and 171, respectively.

Consider RPHAPGRPARGKVQ [Q16439 323-336], for which the normalised SPOT signal, Boehringer light units (BLU); mean over the file's lines of this peptide was found to be 3930 in test [1] and 1270 in test [2].

Consider RPTFLRRPINQVVL [Q9HCK4 226-239], for which the normalised SPOT signal, Boehringer light units (BLU); mean over the file's lines of this peptide in test [1] was found to be 169; in test [2], 575.

For the molecule RPAKPHKPPGSMGL [O60292 677-691], the figures for the normalised SPOT signal, Boehringer light units (BLU); mean over the file's lines of this peptide in test [1] and in test [2] were 163 and 5260, respectively.

Take RQHLPERPRRSPLS [Q9H6G5 120-133]: the normalised SPOT signal, Boehringer light units (BLU); mean over the file's lines of this peptide in test [1] is 5990; in test [2], 11100.

On to RPVLPQRPPEERPP [Q9BXX0 822-836], for which the values for the normalised SPOT signal, Boehringer light units (BLU); mean over the file's lines of this peptide in test [1] and in test [2] were 252 and 420, respectively.

Take AVKSLKRPLEATFD [Q9NR56 273-286]: the normalised SPOT signal, Boehringer light units (BLU); mean over the file's lines of this peptide in test [1] came out at 23.6; in test [2], 20.3.

RPPVPPRPPRPPET [P52849 66-80]: the normalised SPOT signal, Boehringer light units (BLU); mean over the file's lines of this peptide came out at 5400 in test [1] and 8560 in test [2].

For the molecule RPVAPRRPRDAVGQ [O43541 61-74], the normalised SPOT signal, Boehringer light units (BLU); mean over the file's lines of this peptide in test [1] was 3660; in test [2], 1530.

For the molecule RPPRPSRPPPPTPR [O43584 87-101], the normalised SPOT signal, Boehringer light units (BLU); mean over the file's lines of this peptide was 7260 in test [1] and 13600 in test [2].

With RPNPLRRPLNRKRA [Q96CZ1 23-36], the normalised SPOT signal, Boehringer light units (BLU); mean over the file's lines of this peptide in test [1] was determined as 156; in test [2], 200.

On to RPTVPARPPATHPR [Q8TDP0 171-185], for which the normalised SPOT signal, Boehringer light units (BLU); mean over the file's lines of this peptide in test [1] amounted to 8140; in test [2], 14800.

Turning to RPEDPTRPSRFQQQ [O15067 285-298], the figures for the normalised SPOT signal, Boehringer light units (BLU); mean over the file's lines of this peptide in test [1] and in test [2] were 1830 and 149, respectively.

Regarding RPAVLPRPEKPQLP [P78314 398-411], the normalised SPOT signal, Boehringer light units (BLU); mean over the file's lines of this peptide came to 197 in test [1] and 213 in test [2].

On to RPSTLRRPAYRDNQ [Q9Y520 1361-1374], for which the values for the normalised SPOT signal, Boehringer light units (BLU); mean over the file's lines of this peptide in test [1] and in test [2] were 44.5 and 112, respectively.

As for RPRRPRRPGPSDPA [Q96QG0 344-357], the normalised SPOT signal, Boehringer light units (BLU); mean over the file's lines of this peptide in test [1] stood at 594; in test [2], 1340.

With RPPPPRRPQGPPPP [Q04118 259-272], the normalised SPOT signal, Boehringer light units (BLU); mean over the file's lines of this peptide in test [1] amounted to 35.7; in test [2] it was 3820.

As for RPALPGRPPRWLNR [Q8TDZ8 103-117], the normalised SPOT signal, Boehringer light units (BLU); mean over the file's lines of this peptide is 16100 in test [1] and 13400 in test [2].

Consider RNPVLRRPPILEDY [Q96S08 361-374], for which the normalised SPOT signal, Boehringer light units (BLU); mean over the file's lines of this peptide in test [1] worked out at 29.1; in test [2], 15.8.

Turning to RPPFLSRPARGLYS [Q16512 357-370], the figures for the normalised SPOT signal, Boehringer light units (BLU); mean over the file's lines of this peptide in test [1] and in test [2] were 774 and 1450, respectively.

RPALPGRPPQVAEQ [BAC05290 145-159]: the normalised SPOT signal, Boehringer light units (BLU); mean over the file's lines of this peptide in test [1] turned out to be 54.8; in test [2] it was 501.

Source of the values: PMC314469, “Protein Interaction Networks by Proteome Peptide Scanning” (PLoS Biology, 2004).
